Experiment: yeast display, Sf9 membrane polyspecificity reagent, FACS + sequencing; frameworks hold sequencing errors
In short: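 Galactose induction of a Saccharomyces cerevisiae BJ5465 synthetic nanobody display library ran 36–48 hours. The cells were then stained for 1 hour at 4 °C with 10% biotinylated, detergent-solubilized Sf9 membrane reagent, pulled down on streptavidin microbeads and FACS-sorted into low and high (top ~1%) gates on expression and reagent-binding fluorescence. Labels for polyreactivity follow the gate of origin.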
With “QVQLVQSCGGLVQAGGSLRLSCATSGFTFPLYAMGWYRQAPGKERELVAAISSGSSTYYADSVKGRFTISRDNAKNTVYLQMNSLKPEDTAVYYCAAQKRGSPGYRRDYWGQGTQVTVSS” the “polyreactivity (PSR sort gate)” value was “high polyreactivity”. In the case of “QVQLVQSGGCLVQAGGSLRLSCSASGSIFVHHDMGWYRQAPGKERELVAAISWGGGRTYYADSVKGRFTISRDNAKNTVYLQMNSLKPEDTAVYYCAVDGGEFSSYGYWGQGTQVTVSS”, the “polyreactivity (PSR sort gate)” value is reported as “low polyreactivity”. In the case of “QVQLVQSGGGLVHAGGSLRLSCAGSGSIFGTNAMGWYRQAPGKERELVATITSAGSTYYADSVKGRFTISRDYAKITFYLQMNSLKPEDTAVYYCARQATGYVYREYDYWGQGTQVSVSS”, the “polyreactivity (PSR sort gate)” value is reported as “low polyreactivity”. For “QVQLVQSGGGLVQAGGILRLSCAASVSTLFGYAMGWYRQAPGKERELVAAINTGGSTNDADSVKGRFTISRDNAKNTVYVQMNSLKPEDTAVYYCAADYEWDAFAYDYWGHGTQVTVSS”, the “polyreactivity (PSR sort gate)” value was “low polyreactivity”. With “QVQLVQSGGGLVQAGGRLRLSCAASGRIFYYYTMGWYRQAPGKERELVAVISRSGDRTYYADSVKGRFTISRDIAKNTVYLQMNSLKPEDTAVYYCATRWSSARMDYCGQGTQVTVSS” the “polyreactivity (PSR sort gate)” value was “high polyreactivity”. For “QVQLVQSGGGLVQAGGSHRLSCAASGSTFKPYALGWYRQSPGKETELVAASSRGTRTYADSVKGRFTISRDNAKNTVYLQMNSVKPEDTAVYYCAAEWRLTFGYHYEFDYWGQGTQVTVSS”, the “polyreactivity (PSR sort gate)” value was “low polyreactivity”. For “QVQLVQSGGGLVQAGGSLRLSCAASGFTFIRYAMGWYRQAPGKERELVAAIRGTGTSTYYADSVKGRFTISRDIAKNTVYLQMNSLKPEDTAVYYCNAGTYYRSYGYDYWGQGTQVTVSS”, the “polyreactivity (PSR sort gate)” value was “low polyreactivity”. For “QVQLVQSGGGLVQAGGSLRLSCAASGRIFRTYAMGWYRQAPGKERELVAAISSRSGSTYYADSVKGRFTISRDNAKNTVYLQMQSLKPEDTAVYYCASRYGYRYADKGSEYGYWGQGTLVTVSS”, the “polyreactivity (PSR sort gate)” value was “high polyreactivity”. With “QVQLVQSGGGLVQAGGSLRLSCAASGSIFTPNAMGWYRQAPGKERELVAAISGRTGTTYYADSVKGRFTISRDNAKNTVYLQMHSLKPEDTAVYYCAKSSGRYRSDYRGQGTQVTVSS” the “polyreactivity (PSR sort gate)” value was “high polyreactivity”. For “QVQLVQSGGGLVQAGGSLRLSCAASGSTFARNAMGWYRQAPGKERELVAAISSSGGRTYYADSVKGRFTISRDHAKNSVYLQMNSLKPEYTEVYYCAAAFSLGMYWGQGTQGTVSS”, the “polyreactivity (PSR sort gate)” value was “high polyreactivity”. In the case of “QVQLVQSGGGLVQAGGSLRLSCAASGSTFPTNAMGWYRQAPGKERELVAAITSTGSTYADSVKGRFTISRDNAKNTVYLQMNSLKPEDTAVYYCAADTQWTTPYDYWGQGTQVTVSS”, the “polyreactivity (PSR sort gate)” value is reported as “low polyreactivity”. With “QVQLVQSGGGLVQAGGSLRLSCAASGSTFRRKVMGWYRQAPGKETELVAAISWSGTSTNYADSEKGRFTISRDNAKNTVYLQMNSVKPEDTAVYYCATQSLYYRWGLDYWGQGTEVTVSS” the “polyreactivity (PSR sort gate)” value was “high polyreactivity”. For “QVQLVQSGGGLVQAGGSLRLSCAASGSTFTPNDMGWYRQAPGKERELVAAIDWSGGSTYYADSVKGRFTISRDNAKNTVYLQMNSLKPEDTAVYYYNADSSKFYSHGEYEYWGQGTQVTVSS”, the “polyreactivity (PSR sort gate)” value was “low polyreactivity”. In the case of “QVQLVQSGGGLVQAGGSLRLSCAASGSTIVTNAMGWYRQAPGKERELVAANTSVGSTYYADSVKGRFTISRDNAKNTVYLQMNSLKPEDTAVYYCNVVYRDQYNYWGQGTQVTVSS”, the “polyreactivity (PSR sort gate)” value is reported as “low polyreactivity”. In the case of “QVQLVQSGGGLVQAGGSLRLSCAASGTTFNRNAMGWYRQAPGKEMELVDTITSAGSTYYADSVKGRFTISLDNAKNTVYLHMNSLKPEDTAVYYCAKGHQPGHVFHQEYGYYYWGQGTQGTVSS”, the “polyreactivity (PSR sort gate)” value is reported as “low polyreactivity”. For “QVQLVQSGGGLVQAGGSLRLSCADSGSIFEYYTMGWYRQAPGKERELVAAISDGGSTYYADSVKGRFTISRDNAKNTVYLQMYSLKPEDTAVYYCAAEYQQDFWVAVDYWGQGTQVSVSS”, the “polyreactivity (PSR sort gate)” value was “low polyreactivity”. In the case of “QVQLVQSGGGLVQAGGSLRLSCAGSGYILQINAMGWYRQAPGKERELVAAISISGGNTYYADSVKGRFTNSRDNAKNTVYLQMNSLKPEDSAVYYCAAYRFYSYLVRYGLLLAYYYWGQGTQVTVSS”, the “polyreactivity (PSR sort gate)” value is reported as “low polyreactivity”. In the case of “QVQLVQSGGGLVQAGGSLRLTCAASGRTFVVYAMGWYRQAPGKERQLVASISSIGEITNYADSVKGRFTISRDYAKNTVYLQMNSLKQEDTAVYYCTAPICGSYNTRRAAEYDYWGQGTQVTVSS”, the “polyreactivity (PSR sort gate)” value is reported as “low polyreactivity”. With “QVQLVQSGGGLVQAVGSLRLICADSGSIFVPNAMGWYRQALGKERELVAAITYSGVDTYYADSVKGRFTISRDNAKNSVYLQMNSLKPEDTAVYYCAADNGRVGYDYWGLGTQVTVSS” the “polyreactivity (PSR sort gate)” value was “low polyreactivity”. For “QVQLVQSGGGLVQAVGSLRLSCAASGRTFPYYTMGWYRQARGKERELVAAINSSGGRTYYADSVKGRFTISRDNAKNTVYLQMNSLKPEDTAVYYCAKRGYYKYDWGQGTQVTVSS”, the “polyreactivity (PSR sort gate)” value was “high polyreactivity”. In the case of “QVQLVQSVVGLVQAGRRLRLSSAASGRIFFYNAMGWYRHAPGKERELVAGISRSGTSTYYADSVKGRFTISRDNAKNTVYLHMNSLKPEDTAVYYCAAGTFYYWLSYDYWGQGTQVTVSS”, the “polyreactivity (PSR sort gate)” value is reported as “low polyreactivity”. With “QVQLVQTGGGLVQAGGSLRLSCAASGSTFWYNAMGWSRQAPGKERELVARISYSGGSTYYADSVKGRFTISRDNAKNTVYLQMNCLKPEDTAVEYCAGRRPYKYDYWGQGTQVTVSS” the “polyreactivity (PSR sort gate)” value was “high polyreactivity”. For “QVQLVVSGGGLDQARGSLRLSCAASGSNFFYYAMGWYRQAPWKERELVAGINWSGGSTYADSVKGRFTISRDNAKNTVYLQMNSLKPEDTAVYYCAAKFYSERSSYHYWGQGTQVTVSS”, the “polyreactivity (PSR sort gate)” value was “low polyreactivity”. With “QVQLVVSGGGLVQAGGRLRLSCAASGFTFRRNARGWYRQAPGKVWELVAGITSSGTSTYYADSVKGRFTISRDNAKNTVNLQMNSLKPEDTAVYYCNADTPRTGGYWGQGTQVTVSS” the “polyreactivity (PSR sort gate)” value was “high polyreactivity”. With “QVQLVVSGGGLVQAGGRLRLSCAATGSTFSVNAMGWSRQAPGKERELVAAITRSGGSTYYADSVKGRFTFSRDNAKNSVYLQLNSLKPEDTAVYYCAAEIYPLGEYWGQGTQVTVSS” the “polyreactivity (PSR sort gate)” value was “low polyreactivity”. In the case of “QVQLVVSGGGLVQAGGSLRLSCAASGGTFQHNTMGWYRQAPGKERELVAAIRWSDGSTYYADSVKGRFTISRDNAKTTVYLQMNSLKPEDTSVYYCNRAYTASYIPRVGFWGQGTQVTVSS”, the “polyreactivity (PSR sort gate)” value is reported as “high polyreactivity”. For “QVQLVVSGGGLVQAGGSLRLSCAASGRIFRAYAMGWYRQAPGQERELVADITSGSGSTYYADSVKGRFTISRDNAKNTVYLQMNSLKPEDTAVYYCAADVFIRDWEYYYWGQGTQVTVSS”, the “polyreactivity (PSR sort gate)” value was “low polyreactivity”. For “QVQLVVSGGGLVQAGGSLRLSCAASGRIFVYNAMGWYRQAPGKERELVATITSGGSTYYADSVKGRFTISRDNAKNTVYLQMNSLKPEDTAVYYCAARRWYVHYFAYGYWGQGTQVTVSS”, the “polyreactivity (PSR sort gate)” value was “low polyreactivity”. With “QVQLVVSGGGLVQAGGSLRLSCAASGRTFPRYAMGWYRQAPGKERELVASISRRGGSTYYADSVKGRFTISRDNAKNTVYLQMNSLKPEDTAVYYCNAQGYPYKQSTGDFWGQGTQVTVSS” the “polyreactivity (PSR sort gate)” value was “high polyreactivity”. In the case of “QVQLVVSGGGLVQAGGSLRLSCAASGSIFLVNVMGGDRQAPGKERELVAAITWSGGRTYYADSVKGRFTISRDNAKNTVYLPRNSRLPEDTAVYYCAAQTPRFVWQKGPLDSEDYWGQGTQVTVSS”, the “polyreactivity (PSR sort gate)” value is reported as “high polyreactivity”. For “QVQLVVSGGGLVQAGGSLRLSCAASGSLFTPYAMGWYRQAPGKERELVATISWSGGRTYYADSVKGRFTISRDNAKNPVYLQMNSLKPEDTAVYYCAARGYSSEYDYWGQGTQVTVSS”, the “polyreactivity (PSR sort gate)” value was “high polyreactivity”. For “QVQLVVSGGGLVQAGGSLRLSCAASGSTFVSNAMGWYRQAPGQERELVAAITSGGSTDYADSVKGRCTISRDNAKNTVYVQMNSLQPEDTAVYYGAADPEWHSDQPRVGYVGYNYWGQGTQVNVSS”, the “polyreactivity (PSR sort gate)” value was “low polyreactivity”. In the case of “QVQLVVSGGGLVQAGGSLRLSCAASGYIFDYNAMGWYIQSPGKERELVAAINWSGGSTYYADSVKGRFTISRDNAKNTVYLQMNSLKPEDTAVYYCNKLIYGIYYPERYAYDYWGQGTQVTVSS”, the “polyreactivity (PSR sort gate)” value is reported as “low polyreactivity”. With “QVQLVVSGGGLVQAGGSLRLSCAASGYIFYANAMGWYRQAPGKEWELVAAITQSGGRTYYADSVKGRFTISRDNAKNTVYLQMNSLKPEDTAVYYCAAQPWRALGYYYWGQGTQVTVSS” the “polyreactivity (PSR sort gate)” value was “high polyreactivity”. With “QVQLVYSGGGLVQAGGSLRLSCAASGRTFARYAMGWYIQAPWKERELVAAITRSGGSTTYADSVKGLFTISRDNAKNTVYVQLYSLKPVYTAVYFCASSTSLRLDYWGQGTQVTVSS” the “polyreactivity (PSR sort gate)” value was “high polyreactivity”. With “QVQMQESGGGLEQAGGSLRLSCAASGNISGFGYMGWYRQAPGKEREFVAAISYGTSTYYADSVKGLFTISRDNAKNTVYLQINSLKPEDTAVFYCAALCLISKHHHYWGEGTQVTVSS” the “polyreactivity (PSR sort gate)” value was “high polyreactivity”. With “QVQNVESGGGLVQARGSLRLSCAASGRTFTESDMGRYRQAPGKERELVAAITSVGSTYYADSVKGRFTISRYNAKNTVYLQMNSLKPEDTAVYYCAAEWQNTNMDYWGQGTQVTVSS” the “polyreactivity (PSR sort gate)” value was “low polyreactivity”. For “QVQPQERGGGPVQACGSLRLSCAARGNILDADILGWYRLVPGKEGELVASITDGGSTNYAESVKGRFTLSRDNAINTVYHHMNSLKPEDTAVYYCAANARSHAEHDYWGQGTQVTVSS”, the “polyreactivity (PSR sort gate)” value was “low polyreactivity”. In the case of “QVQQHESGGGLVQAGGSLRLTCAASGTISESGLMGWYRQAPGKERELVAGISSGGITNYADSVKGRFTISRDIAINTVYLQMNSPKPEDTAEYWGQGSQVTVSS”, the “polyreactivity (PSR sort gate)” value is reported as “low polyreactivity”. With “QVQQQESGGGLVQAGGSLRLSCAASGTIFQLTFMGRYRQAPGKERELVASIDYGGNTNYADSVKGRFTISRDNAKNNVYLQMNSLKPEDTAVYYCAASSDSWTTHPYWGQGTHVTVSS” the “polyreactivity (PSR sort gate)” value was “low polyreactivity”. For “QVQREESGGGLVQAGGSLRLSCAASGITFKWYAMGWYRQAPGKEREFVAIISTRGGSTYYADSVKGRFTISRDNAKNTVYLQMNSLKPVDTAVYYCNAVRSRVVHRRGDFDYWGQGTQVTVSS”, the “polyreactivity (PSR sort gate)” value was “high polyreactivity”.
